B1: 15D3VHhuIgG1DD/KT14KK/B1.89v1.huL1(KV2)hmz (bispecific antibody)
heavy 1: not shown
heavy 2: not shown
light: DIVMTQSPLSLPVTPGEPASISCRSSQTIVHSNGNTYLEWYLQKPGQSPQLLIYKVSKRFSGVPDRFSGSGSGTDFTLKISRVEAEDVGVYYCFQASHFPRTFGQGTKLEIKRTVAAPSVFIFPPSDEQLKSGTASVVCLLNNFYPREAKVQWKVDNALQSGNSQESVTEQDSKDSTYSLSSTLTLSKADYEKHKVYACEVTHQGLSSPVTKSFNRGEC
notes: also called KB1-1421; 15D3VHhuIgG1DD/KT14KK/B1.89v1.huL1(KV2)hmzLC
B2: 15D3 hmz HIR2/KT14 KBR1/MRK16v4b (bispecific antibody, IgG1)
heavy 1: EVQLVESGGVVVQPGGSLRLSCAASGFTFSRYTMSWVRQAPGKGLEWVATISSGGGNTYYPDSVKGRFTVSRDNSKNSLYLQMNSLRTEDTALYYCARYGAGDAWFAYWGQGTLVTVSSASTKGPSVFPLAPSSKSTSGGTAALGCLVKDYFPEPVTVSWNSGALTSGVHTFPAVLQSSGLYSLSSVVTVPSSSLGTQTYICNVNHKPSNTKVDKRVEPKSCDKTHTCPPCPAPELLGGPSVFLFPPKPKDTLMISRTPEVTCVVVDVSHEDPEVKFNWYVDGVEVHNAKTKPREEQYNSTYRVVSVLTVLHQDWLNGKEYKCKVSNKALPAPIEKTISKAKGQPREPQVCTLPPSREEMTKNQVSLSCAVKGFYPSDIAVEWESNGQPENNYKTTPPVLDSDGSFVLVSKLTVDKSRWQQGNVFSCSVMHEALHNHYTQKSLSLSPG
heavy 2: not shown
light: DIVMTQTPLSSPVTLGQPASISCRSSQSIVHSTGNTYLEWYQQKPGQPPRLLIYKISNRFSGVPDRFSGSGSGTDFTLKISRVEAEDVGVYYCFQASHFPRTFGQGTKLEIK
notes: Humanized ABCB1 x CD47 IgG1 bispecific with a common light chain; the kappa constant region comes from the general cloning description; not shown: human kappa constant light chain

Assays:
human CD47 on cells [1] = biological target: T1, human CD47 on cells (human, UniProt Q08722 19-323); assay: flow cytometry on red blood cells (sentence follows Table 9, human RBC)
T1 construct: also called hCD47; CD47 antigen

human CD47 on cells [2] = biological target: T1, human CD47 on cells; assay: flow cytometry on human RBC, donor D835
Experimental: (§1) Antibody binding to human and cynomolgus RBC was assessed by flow cytometry. […] RBC were prepared by centrifugation of whole blood aliquots (0.5 mL) for 5 min at 500xg. Supernatant (plasma) was removed, and RBC washed 3 times in D-PBS+1 mM EDTA. After the final wash, the RBC were resuspended in D-PBS+1 mM EDTA to a final volume of 0.5 mL. Washed RBC were then diluted in flow cytometry buffer (D-PBS+2% FBS+0.05% sodium azide) to 2% and dispensed at 50 pL/well into 96-well plates. An equivalent volume (50 pL) of antibody serially diluted in flow cytometry buffer to 2× final was added to the RBC, and the mixture incubated for 1 hour at room temperature. […] After 20 minutes at room temperature RBC were washed twice, resuspended in flow cytometry buffer and analyzed using an Invitrogen™ Attune™ NXT flow cytometer. […] Left panel, RBC are gated (R1) based on forward and side scatter. Middle panel, a second gate (R2) is applied to eliminate any remaining doublets or aggregates. Right panel, fluorescence of the R2 gated cells is assessed and a final gate (R3) is set using unstained RBC. Cells falling in the R3 gate are defined as “positive” for binding and reported as the percent (of R2 gated cells) that fall in the R3 gate. The results are presented at percent positive which represents the percent of RBC in the R3 gate.

[3] = biological target: T2, cynomolgus CD47 on red blood cells (cynomolgus, UniProt A0A5F8AK49 19-323 (rhesus entry)); assay: flow cytometry on cynomolgus RBC, donor Cy745
T2 construct: whole, on cells; The assay target is the red blood cell; also called cynomolgus Red Blood Cells
Experimental: as §1

human CD47 on cells [4] = biological target: T1, human CD47 on cells; assay: flow cytometry on human RBC, donor D836
Experimental: as §1

[5] = biological target: T2, cynomolgus CD47 on red blood cells; assay: flow cytometry on cynomolgus RBC, donor Cy746
Experimental: as §1

human CD47 on cells [6] = biological target: T1, human CD47 on cells; assay: flow cytometry on human RBC, donor D834
Experimental: as §1

human CD47 on cells [7] = biological target: T1, human CD47 on cells; assay: flow cytometry on human RBC, donor D837
Experimental: as §1

[8] = biological target: T2, cynomolgus CD47 on red blood cells; assay: flow cytometry on cynomolgus RBC, donor Cy747
Experimental: as §1

[9] = biological target: T2, cynomolgus CD47 on red blood cells; assay: flow cytometry on cynomolgus RBC, donor Cy744
Experimental: as §1

human ABCB1 on cells [10] = biological target: T3, human ABCB1 on cells (human, UniProt P08183 1-1280); assay: flow cytometry, DX5 CD47 knock-out cells ('DX5 KT14 KO'), MFI
T3 construct: whole, on cells; also called MDR1; Pgp

human CD47 on cells [11] = biological target: T1, human CD47 on cells; assay: flow cytometry, DX5 B1 KO (ABCB1 knock-out) cells, % positive cells
human ABCB1 on cells [12] = biological target: T3, human ABCB1 on cells; assay: receptor occupancy assay on A2780ADR cells, curve 'BiS-Direct Binding' (PE anti-human IgG Fc); the cells carry both antigens, the target is named after the receptor whose free signal falls in the same panel
Experimental: Receptor Occupancy (RO) is a measure of the binding of a biotherapeutic to its cellular target(s). Common detection reagents include the drug itself and one or more antibodies binding to the same epitope as the drug. In the present experiment, anti-ABCB1 and anti-CD47 antibodies binding the respective epitopes of the corresponding ABCB1xCD47 bispecific antibodies were used, using the A2780ADR (ovarian) drug resistant cell line. […] Antibodies were prepared by 1:3 serial dilutions in flow cytometry buffer starting from 200 μg/mL (2× final concentration). 50 μL of diluted antibodies were transferred to the cell mixture and the plates incubated at 4° C. for 30 minutes. […] Following two washes with flow cytometry buffer, cells were resuspended in 100 µL of flow cytometry buffer and separated in two samples. […] The two samples were incubated at 4° C. for 30 minutes. Following two washes with flow cytometry buffer, the cells from each sample were resuspended in flow cytometry buffer, plus DAPI, to gate out dead cells, and analyzed using an Attune NXT (ThermoFisher Scientific) flow cytometer.

human ABCB1 on cells [13] = biological target: T3, human ABCB1 on cells; assay: flow cytometry, DX5 WT cells (carry both ABCB1 and CD47), MFI

Row | Binder | binding result (human CD47 on cells [1]) | % Positive (human CD47 on cells [2]) | % Positive [3] | % Positive (human CD47 on cells [4]) | % Positive [5] | % Positive (human CD47 on cells [6]) | % Positive (human CD47 on cells [7]) | % Positive [8] | % Positive [9] | EC50 (read off the curve) (human ABCB1 on cells [10]) | binding result (human CD47 on cells [11]) | EC50 (read off the curve) (human ABCB1 on cells [12]) | EC50 (read off the curve) (human ABCB1 on cells [13])
1 | B1 | no binding | 0.4% | 2.2% | 0.2% | 15.1% | 0.7% | 0.4% | 26.5% | 0.7% | – | – | – | –
2 | B2 | – | – | – | – | – | – | – | – | – | ~20 nM | binds | ~200 nM | ~10 nM
